Data from paper PMC3093752.

Target: T1, DNA polymerase kappa catalytic core (Polκ19-526) (human, UniProt Q9UBT6 19-526)
T1 sequence: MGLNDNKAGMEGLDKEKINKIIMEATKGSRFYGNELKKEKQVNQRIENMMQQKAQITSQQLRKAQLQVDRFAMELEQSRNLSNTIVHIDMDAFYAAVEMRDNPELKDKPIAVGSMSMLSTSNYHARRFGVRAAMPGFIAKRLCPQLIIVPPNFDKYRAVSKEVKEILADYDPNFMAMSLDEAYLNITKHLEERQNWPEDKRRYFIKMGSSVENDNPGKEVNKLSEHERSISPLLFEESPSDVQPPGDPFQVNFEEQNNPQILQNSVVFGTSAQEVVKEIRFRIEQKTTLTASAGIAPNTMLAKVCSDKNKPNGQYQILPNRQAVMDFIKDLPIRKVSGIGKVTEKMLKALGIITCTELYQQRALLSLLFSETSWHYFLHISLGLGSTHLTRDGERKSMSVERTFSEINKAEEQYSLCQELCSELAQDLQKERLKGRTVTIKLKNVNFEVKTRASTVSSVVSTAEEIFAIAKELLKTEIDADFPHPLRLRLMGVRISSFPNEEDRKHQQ
Assay: X-ray crystallography

B1: 13-nt/18-nt primer/template with cis-syn T-T dimer (dsDNA)
DNA 1: TTCCTTGGTCCTTCCCCC
DNA 2: GGGGGAAGGACCA
modifications: cis-syn cyclobutane thymine dimer in template (T5-T6, position from pairing with primer); 3'-terminal dideoxyadenosine on primer
  binding result: binds
